Data from IntAct's records for PubMed 12351681.

B1: Protein Tube (Drosophila melanogaster (Fruit fly)), P22812 (parent)
chain: MAYGWNGCGMGVQVNGSNGAIGLSSKYSRNTELRRVEDNDIYRLAKILDENSCWRKLMSIIPKGMDVQACSGAGCLNFPAEIKKGFKYTAQDVFQIDEAANRLPPDQSKSQMMIDEWKTSGKLNERPTVGVLLQLLVQAELFSAADFVALDFLNESTPARPVDGPGALISLELLEEEMEVDNEGLSLKYQSSTATLGADAQGSVGLNLDNFEKDIVRRDKSVPQPSGNTPPIAPPRRQQRSTTNSNFATLTGTGTTSTTIPNVPNLTILNPSEQIQEPVLQPRPMNIPDLSILISNSGDLRATVSDNPSNRTSSTDPPNIPRITLLIDNSGDVNSRPNHAPAKASTATTSTASSNNLPMISALNISKGSRETLRPESRSSSSSLSKDDDDDNDGEEDGEEEYPDAFLPNLSNSEQQSSNNDSSLTTVTGTSGDNSFELTNDSSSTSNDDYACNIPDLSELQQ
partner: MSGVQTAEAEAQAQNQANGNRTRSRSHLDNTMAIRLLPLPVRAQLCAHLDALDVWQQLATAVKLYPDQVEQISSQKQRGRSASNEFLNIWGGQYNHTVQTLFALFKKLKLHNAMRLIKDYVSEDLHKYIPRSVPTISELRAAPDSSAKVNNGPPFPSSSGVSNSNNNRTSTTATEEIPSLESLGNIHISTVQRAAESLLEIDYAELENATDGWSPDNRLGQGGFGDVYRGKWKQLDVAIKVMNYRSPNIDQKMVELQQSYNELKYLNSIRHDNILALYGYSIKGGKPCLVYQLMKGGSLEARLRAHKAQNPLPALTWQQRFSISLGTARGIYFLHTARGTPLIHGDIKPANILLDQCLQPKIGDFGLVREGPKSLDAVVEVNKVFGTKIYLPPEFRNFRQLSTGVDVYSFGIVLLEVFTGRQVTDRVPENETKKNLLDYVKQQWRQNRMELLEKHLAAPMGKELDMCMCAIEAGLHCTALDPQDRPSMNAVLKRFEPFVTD

Variants of: B1
Conditions: with kpel_drome pll

Row | Variant | effect of a mutation on the interaction
1 | E50K | decreasing interaction
